In the nanobody polyreactivity screen of Harvey et al. (2022):

Test: yeast display, Sf9 membrane polyspecificity reagent, FACS + sequencing; frameworks hold sequencing errors
In short: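 A nanobody's polyreactivity label depends on the gate it was sorted from. Yeast display cells were stained with 10% biotinylated, detergent-solubilized Sf9 membrane reagent for 1 hour at 4 °C, enriched on streptavidin microbeads and sorted by FACS. The low and high (top ~1%) gates were set on anti-HA fluorescence for expression and streptavidin fluorescence for reagent binding.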

Row | Sequence | polyreactivity (PSR sort gate)
1 | QVQLVESGGGLVQAGGSLRLICAASGSIFPFNAMGWYRQAPGKERELVAAISSSGGSTSYADSVKGRFTISRDNAKNTVYLQMNSLKPEDTAVYYCNVRYRSAGSRYGYWGQGTQVTVSS | low polyreactivity
2 | QVQLVESGGGLVQAGGSLRLICAASGSIFRYYAMGWYRQAPGKERELVADINGSGGSTYYADSVKGRFTISRDNAKNTVYLQMNSLKPEDTAVYYCATAYGWRRKYYGYDYCGQGTQVTVSS | high polyreactivity
3 | QVQLVESGGGLVQAGGSLRLICAASGSIFSLYAMGWYRQAPGKQREFVASISRSGGITYYADSVKGRFTISRDNEKNTVYLQMISLKPEDTAVYYCAAVGWVSYRRYDYWGQGTQVTVSS | high polyreactivity
4 | QVQLVESGGGLVQAGGSLRLICAASGSIFTPNALGWYRPAPGKERELVAAISSSSDRTYYADSVKGRFTISRDNAKNSVFLLMNSLKPEDTAVYYCAAYAQKRYYWGQGTQVTVSS | high polyreactivity
5 | QVQLVESGGGLVQAGGSLRLICAASGSIFVGNAMCWYSQATGKERELVATITSGGSTYYADSVKGRFTISRDNAMNTVYLQMNSLKPEDTSVYNCAADYEFSKFDYVYWGQGTQVTVSS | low polyreactivity
6 | QVQLVESGGGLVQAGGSLRLICAASGSIFVYNAMGSYRQAPAKERELVAAISQRGGSTYYADSVKGRFTISRDNAKNTVYLQMKSLKPEDTAVYYCAAGPGDSGDDYWGQGTQVTVSS | low polyreactivity
7 | QVQLVESGGGLVQAGGSLRLICAASGSIFYANAMGWYRQAPGKEREFVAANSSSGGGTSYADSVKGRFTISRDNAKNTVYLQMNSLKPEDTAVYYCAARVTYGGIPARQIYDYWGQGTQVTVSS | low polyreactivity
8 | QVQLVESGGGLVQAGGSLRLICAASGSIFYVNAMGWYRQEPGKERELVAGISRSGSSTYYADSVKGRFTISRDNAKNTVYLLMNSLKPEDTAVYYCNRVYQGRGWHDYWGQGTQVTVSS | high polyreactivity
9 | QVQLVESGGGLVQAGGSLRLICAASGSILYYYVMGWYRQAPGKERQLVAAITSGGSTYYADSVKGRFTISRDNAKNNVYLQMNSLKPEDTAVYYCAVRPRRQYSPSRWGTGCYWGQGTQVTVSS | high polyreactivity
10 | QVQLVESGGGLVQAGGSLRLICAASGSTFDSYAMGWYRQAPGKERELVAAISRSGGRTYYADSVKGRFTISRDNAKNTVYLQMNSLKPEDTAGYYCAAPVKVGHSLSGGDYWGQGTQVTVSS | high polyreactivity
11 | QVQLVESGGGLVQAGGSLRLICAASGSTFEHYAMGWYRPAPGKERELVAAITRRGGSTYYADSVKGRFTISRDNAKNTVYLQMNSLKPEDTAVYDCNTDLRYSYYLPGYDYWGQGPQVTVSS | high polyreactivity
12 | QVQLVESGGGLVQAGGSLRLICAASGSTFEQYAMGWYRQAPGKERELVAAINRGGSTYYADSVKGRFTISRDNAKNTVYLQMNSLKPEDTAVYYCAVYAFVRYRSRYGYWGQGTQVTVSS | high polyreactivity
13 | QVQLVESGGGLVQAGGSLRLICAASGSTFGPYAMGWYRQAPGKERELVADITVSDGSTYYADSVKGRFTISRDNAKNTVYLQMNSLNPEDTAVYYCAAEIYYSFGYWGQGTQVTVSS | low polyreactivity
14 | QVQLVESGGGLVQAGGSLRLICAASGSTFGPYSMGWYRQAPGKEMELVAVITTSGSTNYADSVKGRFTISRDNAKNTVYLQMNSLKPEDTAVYYCAARYRYYGTNRYYYWGQGTQVTVSS | high polyreactivity
15 | QVQLVESGGGLVQAGGSLRLICAASGSTFGVYAMGWYRQAPGKEREMVAAIRWSSGSTYYADSVKGRFTISRDNAKNTVYLQMNSLKPEDTAVYYCAKTRGIYNIRFGYWGQGTQVTVSS | high polyreactivity
16 | QVQLVESGGGLVQAGGSLRLICAASGSTFIINAMGWYRQAPGKERELVARITQRGTSTFYADSVKGRFTISRDNAKNTVYLQMNSLKPDDTAVYYCAGRGSNSLGNKYDYWGQGTQVTVSS | high polyreactivity
17 | QVQLVESGGGLVQAGGSLRLICAASGSTFIINAMGWYRQAPGKERELVARITQRGTSTFYADSVKGRFTISRDNAKNTVYLQMNSLKPEDTAVYYCAARGSKSLGNKYDYWGQGTQVTVSS | high polyreactivity
18 | QVQLVESGGGLVQAGGSLRLICAASGSTFNNNAMGWFRQAPGKERELVAAISYTGGSTYYADSVKGRFTISRDNAKNNVYLQMNSLKPEDTAVYYCAADYPHLGGYRYDYWGQGTQVTVSS | high polyreactivity
19 | QVQLVESGGGLVQAGGSLRLICAASGSTFPTYAMGWYRQAPGKERELVAAIDSSGGNTYYADSVKGRFTISRDNAKNTVYLQMNSLKPEDTEVYYCARESVTYFWYYTPEVDYWGQGTQVTVSS | low polyreactivity
20 | QVQLVESGGGLVQAGGSLRLICAASGSTFQLYAMGWYRQAPGKERDLFAAISGIGDSTYYADSVKGRFTISRDNAKITVYLQMNSLKPEDTAVYYCAREFSDGLSGKFDYWGQRTQVTVSS | low polyreactivity
21 | QVQLVESGGGLVQAGGSLRLICAASGSTFRNYAMGWYRQAPGKDRELVAAISRGDGTYYADSVKWRFTISRDNAKNTVYLLMNSLKPEYSAVYYCAAAYRGRQNPMGFWGQGTQVTVSS | high polyreactivity
22 | QVQLVESGGGLVQAGGSLRLICAASGSTFRYYAMGWYRQAPGKEREFVAAITKGGSRTSYADSVKGRFTISRDNAKNTVYLQMNSLKPEDTAVYYCATAYYGGASQRNYGYWGQGTQVTVSS | high polyreactivity

Row | Sequence | polyreactivity (PSR sort gate)
23 | QVQLVESGGGLVQAGGSLRLICAASGSTFVSNAMGWYRQAPGKERELVAAITVSGGRTYYADSVKGRFTISRDNAKNTVYLQMNSLKPEDTAVYYCAAQIYGKYDYWGQGTQVTVSS | low polyreactivity
24 | QVQLVESGGGLVQAGGSLRLICAASGSTFWGYTMGWYRQAPGKERELVAAITRSSGRTYYADSVKGRFTISRDNAMNTVYLQFHSLKPEDTAVYYWNADAVGRRTWSPYDYWGQGSQVTVSS | high polyreactivity
25 | QVQLVESGGGLVQAGGSLRLICAASGSTFYKYNMGWYRQAPGKERELVAAISGSGTTTYYADTVKGRFTISRDNAKNTVYLQMNSLKPEDTAVYYCAARRFSPGSSGHGYWGQGTQVTVSS | high polyreactivity
26 | QVQLVESGGGLVQAGGSLRLICAASGSTFYPNAMGWYRPAPGKERELVAAITSAGSTYYADSVKGRFTISRDNAKNTVYLQMNSLKPEDTAVYYCAKRRASRYDWGQGTQVTVSS | high polyreactivity
27 | QVQLVESGGGLVQAGGSLRLICAASGSTFYRYAMGWYRQAPGKERELVAAISSSGGSTYYADSVKGRFTISRDIAKNTVYLQMNSLKPEDTAVYYCNRYGSGHSFIYDYWGQGTQVTLSS | high polyreactivity
28 | QVQLVESGGGLVQAGGSLRLICAASGSTFYYNAMGWYRQAPGKERELVAGITYRGGSTYYADSVKGRFTISRDNAKNTVYLQMNSLKPEDTAVYYCAARHYIWSQYYTRYDYWGQGTQVTVSS | high polyreactivity
29 | QVQLVESGGGLVQAGGSLRLICAASGSTIFENVMGWYRQAPGKEREFVAAINTSGGSTYYADSVKGRFTISRDNAKNTVYLQMNILKPEDTAVYYCARDSYWEMDYWGQGTQVTVSS | low polyreactivity
30 | QVQLVESGGGLVQAGGSLRLICAASGSTIVWNAMGWYRQAPGKERELVATITLSTGSTYYADSVKGRFTISRDNAKNTVYLQMNSLKPEDTAVYYCNTEIYVDIISVYGYWGQGTQVTVSS | low polyreactivity
31 | QVQLVESGGGLVQAGGSLRLICAASGSTLIWNAMGWYRQAPGKEMELVAVISFSGVSTYYADSVKGRFTISRDNAKNTVYLQMNSLKPEDTAVYYCAAGRYLYNYYGYVDKYGYWGQGTQVTVSS | low polyreactivity
32 | QVQLVESGGGLVQAGGSLRLICAASGSTLVANAMGGYRQAPGKERELVAAISSGGITYYADSVKGRFTISRDNAKNTVYLQMNSLKPEDTAVYYCAKRGQGFQFGRDYWGQGTQVTVSS | low polyreactivity
33 | QVQLVESGGGLVQAGGSLRLICAASGSTNYRYAMGWYRQAPGKERELVATISSTGARTNYADSVKGRFTISRDNAKNTDYLQMNSLKPEDTAVYYCAASAPYIYYWGQGTQVTVSS | high polyreactivity
34 | QVQLVESGGGLVQAGGSLRLICAASGSTSQNKAMGWYRPAPGKERELVAAITWSGDSTYYADSVKGRFTISRDNAKNTVYIQMNSLKPEDSAVYYCAAVSRFFSTYLYDYWGEGTQVTVSS | low polyreactivity
35 | QVQLVESGGGLVQAGGSLRLICAASGTISSLNTMGWYRQAPVKERELVASITWSGGSTYADSVKGRFTISRDNAKNTVYLQMNSLKPEDTAVYYCAKGVWFSRRRYGYWGQGTQVTVSS | high polyreactivity
36 | QVQLVESGGGLVQAGGSLRLICAASGVTFWSDAMGWYRQAPGKEREFVAAITTSAGRTNYADSVKGRFTISRDNAQNTVYLKMNSLKPEDTAVYYCAARSAYTGLGSGFDYWGQGTQVSVSS | low polyreactivity
37 | QVQLVESGGGLVQAGGSLRLICAASGYTFSYYAMGWYRQAPGKERELVAAINYSGGRTYYADSVKGRFTISRDNAKNTVYLQMNSLKPDDTAVYYCAAYTRNGDYDYWGQGTQVTVSS | high polyreactivity
38 | QVQLVESGGGLVQAGGSLRLICADSGSTFTGNAMGWYRQAPGKERELVAAISRSGGRTYYADSVKGRFTISRDNAKNTVYLQMNSLKPEDTAVYYCNAVRNRGQRTAFDYWGQGTQVTVSS | high polyreactivity
39 | QVQLVESGGGLVQAGGSLRLICASSGLNFVVYAMGRSRPAPGKERELVAAISSGGGSTYYADSVKGRFTISRDNAKNSVYLQMNSQKPEDTEVYYCNAVDKLYYWRYDYWRQGTQVTVSS | low polyreactivity
40 | QVQLVESGGGLVQAGGSLRLICDASGRIFPWYTMGWYRQAPGKERELVAAITSGGNKDYADSVKGRFTISRDYAKNTVFLQMNSLKPEDTAVYYCAAGPDPLGEDYWGQGTQVTVSS | low polyreactivity
41 | QVQLVESGGGLVQAGGSLRLICDASGRTFGPYVMRLYRQAPGKERELVASISSADSRYYADSVKGRFTISRDNAKNTVYLQMNSLKPEDTAVYYCAAPSVGYYDPTDFDYWGQGTQVTVSS | low polyreactivity
42 | QVQLVESGGGLVQAGGSLRLICPASGRIFLTKAIGWYRPAPGIDRELVADISRGGSTYADSVKGRFTISSDNAKNTVYLQINSLKPEDTAVYYCAPDEYSPADSRTRYDYWGQGTQVSVSS | low polyreactivity
43 | QVQLVESGGGLVQAGGSLRLIFAASGSIFPDYAMGWYITAPGKERELVAAISRSGGRTSYADSVKGRFTISRDNAKNTVFLQMNSLKPEDTAVYYCNVASRQGSTYDYWGQGTQVTVSS | high polyreactivity
